Assay results from PMC2212946.

Molecular target: Fc fragment of IgE (domains Cε2-4) (human)
Experiment: SPR

Sequence of Fc fragment of IgE (domains Cε2-4) (human) (P01854 whole entry, the tested form may be a part): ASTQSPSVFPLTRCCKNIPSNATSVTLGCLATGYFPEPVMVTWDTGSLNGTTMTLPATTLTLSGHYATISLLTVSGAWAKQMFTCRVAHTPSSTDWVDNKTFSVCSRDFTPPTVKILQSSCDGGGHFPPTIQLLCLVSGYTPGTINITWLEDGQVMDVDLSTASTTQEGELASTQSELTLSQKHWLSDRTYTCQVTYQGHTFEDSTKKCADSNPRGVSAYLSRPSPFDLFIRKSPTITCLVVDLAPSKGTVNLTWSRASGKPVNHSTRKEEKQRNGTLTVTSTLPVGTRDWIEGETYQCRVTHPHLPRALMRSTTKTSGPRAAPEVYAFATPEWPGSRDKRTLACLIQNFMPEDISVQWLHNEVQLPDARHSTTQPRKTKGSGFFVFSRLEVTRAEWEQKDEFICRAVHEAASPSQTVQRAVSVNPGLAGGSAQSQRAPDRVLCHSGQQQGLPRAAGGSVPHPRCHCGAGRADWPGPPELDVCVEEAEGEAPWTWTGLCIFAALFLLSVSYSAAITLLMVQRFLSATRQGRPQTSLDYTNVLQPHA

| KD, first of two components | KD, second of two components | koff, major component | koff, minor component | Kd | Binder |
| --- | --- | --- | --- | --- | --- |
| 1100 nM | 39 nM | 0.0005 s⁻¹ | 0.04 s⁻¹ |  | exCD23, recombinant soluble CD23 fragment containing the entire extracellular sequence (domain or fragment) DTTQSLKQLEERAARNVSQVSKNLESHHGDQMAQKSQSTQISQELEELRAEQQRLKSQDLELSWNLNGLQADLSSFKSQELNERNEASDLLERLREEVTKLRMELQVSSGFVCNTCPEKWINFQRKCYYFGKGTKQWVHARYACDDMEGQLVSIHSPEEQDFLTKHASHTGSWIGLRNLDLKGEFIWVDGSHVDYSNWAPGEPTSRSQGEDCVMMRGSGRWNDAFCDRKLGAWVCDRLATCTPPASEGSAESMGPDSRPDPDGRLPTPSAPLHS |
|  |  |  |  | 1300 nM | derCD23, recombinant version of the Der p I fragment of human CD23 (FcεRII), C-type lectin domain (domain or fragment) SGFVCNTCPEKWINFQRKCYYFGKGTKQWVHARYACDDMEGQLVSIHSPEEQDFLTKHASHTGSWIGLRNLDLKGEFIWVDGSHVDYSNWAPGEPTSRSQGEDCVMMRGSGRWNDAFCDRKLGAWVCDRLATCTPPASEGSAE |
